Reference: US20240392262A1, “TRANSPOSASE AND USES THEREOF” (Poseida Therapeutics, Inc., published 2024)

Assays:
PAH6 Left TAL-PBx = target: T1, PAH6 Left TAL-PBx (synthetic construct); test: cell_activity; left only; settings: tags: 3xFlag, SV40 NLS
T1 chain: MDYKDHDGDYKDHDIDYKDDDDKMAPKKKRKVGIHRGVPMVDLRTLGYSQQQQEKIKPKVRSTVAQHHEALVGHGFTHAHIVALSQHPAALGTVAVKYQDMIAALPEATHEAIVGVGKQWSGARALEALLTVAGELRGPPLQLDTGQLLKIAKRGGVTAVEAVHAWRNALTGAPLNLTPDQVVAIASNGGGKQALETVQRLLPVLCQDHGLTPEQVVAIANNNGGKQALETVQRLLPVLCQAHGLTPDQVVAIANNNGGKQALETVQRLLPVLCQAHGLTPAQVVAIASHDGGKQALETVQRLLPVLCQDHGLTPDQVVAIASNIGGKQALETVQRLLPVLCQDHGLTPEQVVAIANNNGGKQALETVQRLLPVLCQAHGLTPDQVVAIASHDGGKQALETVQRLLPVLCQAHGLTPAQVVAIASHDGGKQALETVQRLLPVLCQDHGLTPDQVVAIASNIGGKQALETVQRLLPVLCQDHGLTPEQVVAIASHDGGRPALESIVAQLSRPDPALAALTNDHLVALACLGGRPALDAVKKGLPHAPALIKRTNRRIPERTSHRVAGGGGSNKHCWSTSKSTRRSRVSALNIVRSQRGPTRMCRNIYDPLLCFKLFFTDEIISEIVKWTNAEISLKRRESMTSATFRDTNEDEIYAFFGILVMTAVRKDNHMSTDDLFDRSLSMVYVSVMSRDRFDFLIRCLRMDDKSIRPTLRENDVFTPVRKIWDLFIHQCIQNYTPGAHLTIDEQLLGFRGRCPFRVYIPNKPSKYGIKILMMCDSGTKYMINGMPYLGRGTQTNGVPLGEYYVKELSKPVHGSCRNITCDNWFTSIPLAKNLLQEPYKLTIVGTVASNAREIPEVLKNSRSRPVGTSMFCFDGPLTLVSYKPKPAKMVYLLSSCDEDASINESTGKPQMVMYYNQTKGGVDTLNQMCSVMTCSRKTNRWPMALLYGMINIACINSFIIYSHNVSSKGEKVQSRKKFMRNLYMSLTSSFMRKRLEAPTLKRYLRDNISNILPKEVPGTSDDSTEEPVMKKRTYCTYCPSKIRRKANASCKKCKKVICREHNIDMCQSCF

PAH6 Right TAL-PBx = target: T2, PAH6 Right TAL-PBx (synthetic construct); test: cell_activity; right only; settings: tags: 3xFlag, SV40 NLS
T2 chain: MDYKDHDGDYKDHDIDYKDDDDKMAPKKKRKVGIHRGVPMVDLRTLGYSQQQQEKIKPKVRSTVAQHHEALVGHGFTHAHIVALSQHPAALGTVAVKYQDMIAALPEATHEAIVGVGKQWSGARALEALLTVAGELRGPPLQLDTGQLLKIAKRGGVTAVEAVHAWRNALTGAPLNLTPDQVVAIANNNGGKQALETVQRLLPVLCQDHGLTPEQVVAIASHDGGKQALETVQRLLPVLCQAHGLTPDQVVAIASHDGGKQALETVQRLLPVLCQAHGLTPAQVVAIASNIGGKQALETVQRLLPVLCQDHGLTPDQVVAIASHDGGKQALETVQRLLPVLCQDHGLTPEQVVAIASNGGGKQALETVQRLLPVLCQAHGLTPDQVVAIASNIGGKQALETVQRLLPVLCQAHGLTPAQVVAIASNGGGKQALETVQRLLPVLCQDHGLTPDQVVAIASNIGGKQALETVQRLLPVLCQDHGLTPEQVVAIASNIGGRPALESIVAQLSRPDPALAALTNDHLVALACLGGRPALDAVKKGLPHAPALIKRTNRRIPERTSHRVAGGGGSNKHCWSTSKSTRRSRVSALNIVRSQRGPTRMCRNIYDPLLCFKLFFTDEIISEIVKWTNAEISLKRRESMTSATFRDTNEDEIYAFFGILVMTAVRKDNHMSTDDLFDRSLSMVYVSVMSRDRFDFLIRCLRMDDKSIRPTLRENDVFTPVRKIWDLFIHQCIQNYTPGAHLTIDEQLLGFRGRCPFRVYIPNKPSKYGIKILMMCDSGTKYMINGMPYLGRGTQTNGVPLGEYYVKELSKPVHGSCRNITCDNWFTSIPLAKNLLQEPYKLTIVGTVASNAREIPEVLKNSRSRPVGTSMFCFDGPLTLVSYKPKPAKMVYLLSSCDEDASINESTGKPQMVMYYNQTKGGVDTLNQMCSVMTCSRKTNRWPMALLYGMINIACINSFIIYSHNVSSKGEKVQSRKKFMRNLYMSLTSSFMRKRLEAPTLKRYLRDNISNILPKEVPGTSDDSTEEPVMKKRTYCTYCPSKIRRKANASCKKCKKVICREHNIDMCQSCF

B1: PAH6 target (dsDNA)
DNA 1: TTGGCAGCCACTGTCCTAAATATTTTAACCAAATCAAAATCTTATAGTGGCA
DNA 2: TGCCACTATAAGATTTTGATTTGGTTAAAATATTTAGGACAGTGGCTGCCAA
B1 gave an activity (PAH6 Left TAL-PBx) of 2.7 % GFP+ and an activity (PAH6 Right TAL-PBx) of 2.5 % GFP+.
